Substitutions are numbered along the chain they refer to.

Holding throughout (assay): fluorescence anisotropy; FA: 20 mM HEPES-NaOH pH 7.5, 100 mM NaCl, 10% glycerol, 20 C, 10 nM FAM-RNA; competition: 150 nM Egl512-819 + 10 nM FAM-K10 TLS, same buffer
Holding throughout (conditions): protein: recombinant; tags: N-terminal GST; label: 5'-6-FAM; hairpin with two bulges
(In general: In fluorescence polarisation assays a small probe gives low polarisation when free and higher when bound to something large.)

The target of one data set is T1, R785A (Drosophila melanogaster, UniProt Q9W1K4 512-819, R785A).
T1 sequence: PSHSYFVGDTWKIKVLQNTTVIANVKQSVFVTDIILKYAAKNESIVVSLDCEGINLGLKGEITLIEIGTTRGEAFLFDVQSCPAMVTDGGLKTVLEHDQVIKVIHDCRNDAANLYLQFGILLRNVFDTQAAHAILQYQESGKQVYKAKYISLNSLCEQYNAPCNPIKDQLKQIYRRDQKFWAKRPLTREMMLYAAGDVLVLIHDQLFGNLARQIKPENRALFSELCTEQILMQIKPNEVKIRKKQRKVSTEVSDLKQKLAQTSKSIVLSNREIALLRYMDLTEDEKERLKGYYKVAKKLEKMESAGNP

Another data set addresses T2, K754E (Drosophila melanogaster, UniProt Q9W1K4 512-819, K754E).
T2 sequence: T1 sequence with K243E, A274R

The target of a further data set is T3, R782E (Drosophila melanogaster, UniProt Q9W1K4 512-819, R782E).
T3 sequence: T1 sequence with R271E, A274R

A further data set has as its target T4, K755A (Drosophila melanogaster, UniProt Q9W1K4 512-819, K755A).
T4 sequence: T1 sequence with K244A, A274R

B1: K10 TLS (FAM) (structured_RNA)
RNA: CUUGAUUGUAUUUUUAAAUUAAUUCUUAAAAACUACAAAUUAAG
As a reminder, the Kd is the constant that tells how readily two partners part at equilibrium. In the case of B1, the Kd with R785A stood at 194 ± 10 nM; with K754E, 263 ± 16 nM; in the data set with R782E, 235 ± 30 nM; with K755A it was 131 ± 5 nM.
